{"source": "patent US20130059782", "target": "full-length TF his-tag modified protein in yeast-derived microvesicles (TT-173): mature hTF with Asn124Ala mutation and six histidines at the C-terminus", "data": [{"protein": "activated coagulation Factor VII (purified commercial FVIIa) (protein) ANAFLEELRPGSLERECKEEQCSFEEAREIFKDAERTKLFWISYSDGDQCASSPCQNGGSCKDQLQSYICFCLPAFEGRNCETHKDDQLICVNENGGCEQYCSDHTGTKRSCRCHEGYSLLADGVSCTPTVEYPCGKIPILEKRNASKPQGRIVGGKVCPKGECPWQVLLLVNGAQLCGGTLINTIWVVSAAHCFDKIKNWRNLIAVLGEHDLSEHDGDEQSRRVAQVIIPSTYVPGTTNHDIALLRLHQPVVLTDHVVPLCLPERTFSERTLAFVRFSLVSGWGQLLDRGATALELMVLNVPRLMTQDCLQQSRKVGDSPNITEYMFCAGYSDGSKDSCKGDSGGPHATHYRGTWYLTGIVSWGQGCATVGHFGVYTRVSQYIEWLQKLMRSEPRPGVLLRAPFP", "values": [{"measurement": "amidolytic activity of the TF:FVIIa complex (chromogenic substrate S-2288), TT-173 with or without added PS", "result": "there was no appreciable differences in the amidolytic activity between TT-173 with or without PS at the three concentrations of TT-173 tested, and at both concentrations of FVIIa used, 50 nM (not shown) or 500 nM (FIG. 7)"}]}]}
